{
  "source": "paper PMC10480278",
  "key": {"[1]": {"target": "Asp186 (UniProt position 186, DGFRFDAAKHM)", "test": "kinetics", "conditions": "70 °C; mixture of citrate, phosphate and glycine buffers (100 mM each); Enzyme turning over starch and maltose (activity assay); 0.5 U/mL purified enzyme"}, "[2]": {"target": "Glu216 (UniProt position 216, GIFLAEIWAEA)", "test": "kinetics", "conditions": "70 °C; mixture of citrate, phosphate and glycine buffers (100 mM each); Enzyme turning over starch and maltose (activity assay); 0.5 U/mL purified enzyme"}},
  "note": "“And” between values parts separate entries of the source, which are not always exact repeats. Identical values can stand only once.",
  "data": [
    {"substance": "4-alpha-glucanotransferase (TmGTase) W131G (Thermotoga maritima; W131G)", "values": [
      {"measurement": "pKa", "setting": "[1]", "result": "4.7 ± 0.1 and 4.5 ± 0.09"},
      {"measurement": "pKa", "setting": "[2]", "result": "8.9 ± 0.1"}
    ]},
    {"substance": "4-alpha-glucanotransferase (TmGTase), wild type (Thermotoga maritima)", "values": [
      {"measurement": "pKa", "setting": "[1]", "result": "4.4 ± 0.1"},
      {"measurement": "pKa", "setting": "[2]", "result": "8.9 ± 0.1"}
    ]},
    {"substance": "4-alpha-glucanotransferase (TmGTase) truncated loop variant (Thermotoga maritima; del120-124;del128-131)", "values": [
      {"measurement": "pKa", "setting": "[1]", "result": "4.6 ± 0.1"},
      {"measurement": "pKa", "setting": "[2]", "result": "8.9 ± 0.1"}
    ]}
  ]
}
